B1: FHL2 (NP_963851.2) (other, human, UniProt Q14192 1-279, looked up)
chain: MTERFDCHHCNESLFGKKYILREESPYCVVCFETLFANTCEECGKPIGCDCKDLSYKDRHWHEACFHCSQCRNSLVDKPFAAKEDQLLCTDCYSNEYSSKCQECKKTIMPGTRKMEYKGSSWHETCFICHRCQQPIGTKSFIPKDNQNFCVPCYEKQHAMQCVQCKKPITTGGVTYREQPWHKECFVCTACRKQLSGQRFTARDDFAYCLNCFCDLYAKKCAGCTNPISGLGGTKYISFEERQWHNDCFNCKKCSLSLVGRGFLTERDDILCPDCGKDI
B2: human MuRF1 polypeptide (muscle ring finger 1), full length (enzyme)
chain: MENLEKQLICPICLEMFTKPVVILPCQHNLCRKCANDIFQAANPYWTSRGSSVSMSGGRFRCPTCRHEVIMDRHGVYGLQRNLLVENIIDIYKQECSSRPLQKGSHPMCKEHEDEKINIYCLTCEVPTCSMCKVFGIHKACEVAPLQSVFQGQKTELNNCISMLVAGNDRVQTIITQLEDSRRVTKENSHQVKEELSQKFDTLYAILDEKKSELLQRITQEQEEKLSFIEALIQQYQEQLDKSTKLVETAIQSLDEPGGATFLLTAKQLIKSIVEASKGCQLGKTEQGFENMDFFTLDLEHIADALRAIDFGTDEEEEEFIEEEDQEEEESTEGKEEGHQ
notes: Full length bait in the yeast two-hybrid screens; also called TRIM63; RNF28
B3: FABP4 (NP_001433.1) (other, human, UniProt P15090 1-132, looked up)
chain: MCDAFVGTWKLVSSENFDDYMKEVGVGFATRKVAGMAKPNMIISVNGDVITIKSESTFKNTEISFILGQEFDEVTADDRKVKSTITLDGGVLVHVQKWDGKSTTIKRKREDDKLVVECVMKGVTSTRVYERA

Columns and labels:
[1] = target: B2; assay: yeast two-hybrid, full length bait
[2] = target: ENO3 (NP_443739.2) (human, UniProt P13929 1-434, limits assumed); assay: yeast two-hybrid
[3] = target: T1, EEF1G (NP_001395.1) (human, UniProt P26641 1-437, limits assumed); assay: yeast two-hybrid, full length bait
T1 construct: also called translation initiation factor EEF1G

[4] = target: T2, sequestosome-1 (NP_003891.1) (human, UniProt Q13501 1-440, limits assumed); assay: yeast two-hybrid, full length bait
T2 construct: also called SQSTM1

[5] = target: B2; assay: yeast two-hybrid

ENO3 (NP_443739.2), sequence (P13929 whole entry): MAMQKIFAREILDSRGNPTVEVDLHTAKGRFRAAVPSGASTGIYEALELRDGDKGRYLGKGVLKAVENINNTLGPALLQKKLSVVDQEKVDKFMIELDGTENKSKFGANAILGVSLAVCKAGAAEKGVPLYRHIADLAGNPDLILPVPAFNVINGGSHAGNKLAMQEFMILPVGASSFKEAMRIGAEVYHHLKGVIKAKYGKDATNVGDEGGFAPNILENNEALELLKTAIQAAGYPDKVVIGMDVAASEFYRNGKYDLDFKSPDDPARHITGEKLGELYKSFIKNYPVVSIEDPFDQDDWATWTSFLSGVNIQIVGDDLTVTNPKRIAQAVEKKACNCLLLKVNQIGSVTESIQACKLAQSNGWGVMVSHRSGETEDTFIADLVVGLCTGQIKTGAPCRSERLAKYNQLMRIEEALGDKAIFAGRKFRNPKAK
T1 sequence (P26641 whole entry): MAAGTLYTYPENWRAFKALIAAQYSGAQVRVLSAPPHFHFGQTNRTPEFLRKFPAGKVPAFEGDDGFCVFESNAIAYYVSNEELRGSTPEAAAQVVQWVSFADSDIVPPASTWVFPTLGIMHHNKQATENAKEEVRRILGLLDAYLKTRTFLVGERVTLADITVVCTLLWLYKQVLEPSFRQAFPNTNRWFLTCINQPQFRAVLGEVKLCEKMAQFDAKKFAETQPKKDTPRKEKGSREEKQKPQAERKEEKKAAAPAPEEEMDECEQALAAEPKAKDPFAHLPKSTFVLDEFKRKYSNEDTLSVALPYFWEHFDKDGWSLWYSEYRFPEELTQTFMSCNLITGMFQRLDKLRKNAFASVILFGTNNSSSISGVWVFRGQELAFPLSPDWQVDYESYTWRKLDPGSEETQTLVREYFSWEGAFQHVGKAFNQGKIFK

Binder: B1
binding result [1]: binds

Binder: B2
binding result [2]: binds | binding result [3]: binds | binding result [4]: binds

Binder: B3
binding result [5]: binds

— patent EP2072528A1 (Labeit, a person, dated 2009)
